Data on four molecules can be found in US20250332297A1, “DLL3-SPECIFIC BINDING CONSTRUCTS AND THEIR USE IN RADIOTHERAPY” (MOLECULAR PARTNERS AG, priority 2024, published 2025).

The Kd is the constant that tells how readily two partners part at equilibrium. What is called koff is the rate constant with which the complex falls apart. A higher koff goes with a short-lived complex. As a reminder, the kon is the rate constant with which the complex forms. A lower kon goes with slower complex formation.

T1: NCI-H82 cells expressing human DLL3 (Homo sapiens, UniProt Q9NYJ7)
T1 construct: a human lung carcinoma cell line which endogenously expresses DLL3 on the surface; host or cells: NCI-H82
T1 sequence (Q9NYJ7 27-618): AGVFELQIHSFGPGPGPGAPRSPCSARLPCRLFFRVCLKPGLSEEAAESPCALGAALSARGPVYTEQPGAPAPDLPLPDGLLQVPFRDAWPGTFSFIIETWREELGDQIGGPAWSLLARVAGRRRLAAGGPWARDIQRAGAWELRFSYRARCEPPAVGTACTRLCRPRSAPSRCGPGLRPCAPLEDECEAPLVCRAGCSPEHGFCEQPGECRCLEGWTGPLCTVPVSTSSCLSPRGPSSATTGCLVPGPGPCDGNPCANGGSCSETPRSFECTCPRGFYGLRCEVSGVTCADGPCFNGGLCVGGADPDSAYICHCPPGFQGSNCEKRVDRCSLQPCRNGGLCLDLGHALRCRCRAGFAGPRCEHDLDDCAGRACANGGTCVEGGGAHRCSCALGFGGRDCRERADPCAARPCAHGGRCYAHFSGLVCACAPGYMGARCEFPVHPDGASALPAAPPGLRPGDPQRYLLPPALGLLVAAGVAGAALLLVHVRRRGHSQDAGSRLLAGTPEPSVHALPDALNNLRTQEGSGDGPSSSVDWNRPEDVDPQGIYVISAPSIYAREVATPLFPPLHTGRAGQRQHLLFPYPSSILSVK

T2: human DLL3 (Homo sapiens, UniProt Q9NYJ7)
T2 construct: (Q9NYJ7, Gene ID: 10683, residues 27 to 466; purchased from Evitria); 3C protease recognition site (C); Fc knob into hole (C); purchased Evitria
T2 sequence (Q9NYJ7 27-466): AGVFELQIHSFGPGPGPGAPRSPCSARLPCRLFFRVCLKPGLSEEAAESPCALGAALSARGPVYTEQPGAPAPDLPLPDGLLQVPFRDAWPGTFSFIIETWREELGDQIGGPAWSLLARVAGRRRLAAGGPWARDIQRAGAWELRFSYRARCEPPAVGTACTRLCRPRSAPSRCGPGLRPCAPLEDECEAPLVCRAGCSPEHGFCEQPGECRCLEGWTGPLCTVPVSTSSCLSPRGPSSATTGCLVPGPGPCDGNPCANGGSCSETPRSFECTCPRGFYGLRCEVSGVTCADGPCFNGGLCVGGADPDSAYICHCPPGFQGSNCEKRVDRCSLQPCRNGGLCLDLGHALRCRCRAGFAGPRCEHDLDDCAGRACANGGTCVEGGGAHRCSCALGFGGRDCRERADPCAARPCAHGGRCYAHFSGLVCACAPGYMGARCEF

B1: MAM282: Two domain (2D) ankyrin repeat protein: serum albumin-specific domain (SEQ ID NO: 7), PT linker, DLL3-specific domain (SEQ ID NO: 2) (protein)
chain: DLGKKLLEAARAGQDDEVRELLKAGADVNAKDYFSHTPLHLAARNGHLKIVEVLLKAGADVNAKDFAGKTPLHLAADAGHLEIVEVLLKAGADVNAQDIFGKTPADIAADAGHEDIAEVLQKAAGSPTPTPTTPTPTPTTPTPTPTGSDLGKKLLAAAREGQDDEVRELLKAGADVNAKDIWGQTPLHIAAWFGHLEIVEVLLKAGADVNAKDQTGHTPLHLAAKFGHLEIVEVLLKAGADVNAQDLLGRTPADLAAEEGHEDIAEVLQKAA
modifications: Ankyrin repeat protein (MAM282)
B2: MAM279: Two domain (2D) ankyrin repeat protein: serum albumin-specific domain (SEQ ID NO: 7), PT linker, DLL3-specific domain of MAM093 (protein)
chain: DLGKKLLEAARAGQDDEVRELLKAGADVNAKDYFSHTPLHLAARNGHLKIVEVLLKAGADVNAKDFAGKTPLHLAADAGHLEIVEVLLKAGADVNAQDIFGKTPADIAADAGHEDIAEVLQKAAGSPTPTPTTPTPTPTTPTPTPTGSDLGKKLLAAAAQGQDDEVRELLKAGANVNAKDLFGYTPLHLAAWRGHLEIVEVLLKAGADVNAKDAAGETPLHLAAWFGHLEIVEVLLKAGADVNAQDLQGKTPADLAAKEGHEDIAEVLQKAA
modifications: Ankyrin repeat protein (MAM279)
B3: MAM283: Two domain (2D) ankyrin repeat protein: serum albumin-specific domain (SEQ ID NO: 7), PT linker, DLL3-specific domain (SEQ ID NO: 3) (protein)
chain: B2 chain with Q160D, K171Q, N175D, K204E, K237E, L247V, K270Q
modifications: Ankyrin repeat protein (MAM283)
B4: MAM160: Two domain (2D) ankyrin repeat protein: serum albumin-specific domain (SEQ ID NO: 7), PT linker, DLL3-specific domain MAM120 (protein)
chain: DLGKKLLEAARAGQDDEVRELLKAGADVNAKDYFSHTPLHLAARNGHLKIVEVLLKAGADVNAKDFAGKTPLHLAADAGHLEIVEVLLKAGADVNAQDIFGKTPADIAADAGHEDIAEVLQKAAGSPTPTPTTPTPTPTTPTPTPTGSDLGTKLLSAAADGQDDEVRELLQAGADVNAKDLFGYTPLHLAAWRGHLEIVEVLLEAGADVNAKDAAGLTPLHLAAWFGHLEIVEVLLEAGADVNAQDVQGVTPADLAAKEGHEDIAEVLQQAA
modifications: Ankyrin repeat protein (MAM160)

Numbering of substitutions follows the chain as printed.

The first series addresses T1, NCI-H82 cells expressing human DLL3. Description: Cell binding titration on NCI-H82 cells. It counts as cell-based. The settings on record: absence of human serum albumin, read-out: Cell binding EC50, w/o HSA. The protocol:
Furthermore, cell binding titration assays were also performed with selected two domain (2D) designed ankyrin repeat proteins to determine binding to human cells expressing DLL3 endogenously, in absence and presence of human serum albumin. For this purpose, NCI-H82 cells were used, a human lung carcinoma cell line which endogenously expresses DLL3 on the surface. […] A non-binding DARPin comprising SEQ ID NO: 22 was used as a negative control.
In brief, 1×10^5 cells/well were resuspended in 100 μl DARPin dilution (500 nM, 1:5 serial diluted in PBS, 2% FBS) and incubated for 1 h at 4° C. This step was performed in absence and presence of 10 μM Human Serum Albumine (CSL Behring #150570). Cells were washed twice with PBS, 2% FBS and resuspended in 100 μl anti-DARPin antibody (rabbit anti-DARPin 1.4.8) and LIVE/DEAD cell stain (1:1000, Biolegend #423106). After incubation and washing, cells were incubated with detection antibody for 30 minutes (Goat […] IgG (H+L), AF647, Thermo Fisher #21445). Cells were fixed (Paraformaldehyde Solution, TCL119, LucernaChem) and acquired at Attune N×T (Thermo Life Technologies). Raw fcs files were exported and analyzed using FlowJo software. MFI values of live AF647-positive cells were exported from FlowJo and plotted using GraphPad Prism software.
For the molecule B1, the EC50 came to 2.6 nM.

Take B2: the EC50 came to 2.5 nM.

As for B3, the EC50 was determined as 5.4 nM.

Staying with this series, now noted: presence of 10 μM human serum albumin, read-out: Cell binding EC50, with HSA.
In the case of B1, the EC50 is 2.6 nM.

In the case of B2, the EC50 came to 2.1 nM.

Turning to B3, the EC50 is 8.1 nM.

A further series deals with human serum albumin (Homo sapiens, UniProt P02768). Description: SPR binding to human serum albumin (Example 1). The settings on record: immobilized HSA, 1:1 Langmuir, Table 2. Set-up: purchased CSL. The procedure: Similarly, a SPR assay was used to determine the binding kinetics to human or mouse serum albumin. […] All analytes (3-fold dilution ranging from 1000-12.35 nM) were injected in succession for 240 s (25 μl/min) and dissociation was recorded for 600 s (25 μl/min). […] The obtained SPR traces were used to determine the ankyrin repeat protein-serum albumin interaction parameters, summarized in Table 2.
(Surface plasmon resonance follows binding to a sensor surface in real time, without labels.)
With B1, the dissociation constant Kd was determined as 74.3 nM, the “Koff HSA” value turned out to be 0.00889 s⁻¹ and the “Kon HSA” value is 120000 M⁻¹ s⁻¹.

With B4, binding was put at a Kd of 95.9 nM, the “Koff HSA” value was 0.0105 s⁻¹ and the “Kon HSA” value was found to be 110000 M⁻¹ s⁻¹.

Regarding B2, the Kd amounted to 75 nM, the “Koff HSA” value is 0.00923 s⁻¹ and the “Kon HSA” value is 123000 M⁻¹ s⁻¹.

Turning to B3, the dissociation constant (Kd) worked out at 103 nM, the “Koff HSA” value is 0.00924 s⁻¹ and the “Kon HSA” value was 89500 M⁻¹ s⁻¹.

The target in the next series is T2, human DLL3. Kind of series: SPR multi-trace analysis, binding to human DLL3 (Example 1). As to conditions: immobilized bio-DLL3 (hDLL3 ECD), PBS pH 7.4, 1:1 Langmuir, Table 1. The procedure:
Kinetic binding parameters and binding affinities of two domain (2D) ankyrin repeat proteins comprising an ankyrin repeat domain with binding specificity for DLL3 and an ankyrin repeat domain with binding specificity for serum albumin were determined by surface plasmon resonance (SPR) multi-trace analysis.
In brief, a SPR assay was used to determine the binding kinetics to the target human DLL3. The data were generated using BioRad ProteOn instrument in SPR running buffer (PBS, pH 7.4 containing 0.005% Tween 20®). […] The chip was coated with biotinylated target (bio-DLL3) to reach a signal intensity of 1780 RU. All analytes (3-fold dilution ranging from 300-33.3 nM) were injected in succession for 240 s (100 μl/min) and dissociation was recorded for 10800 s (100 μl/min). Each injection was followed by a regeneration step with 16 mM H3PO4 for 18 s. […] The bio-DLL3 target used was as described in U.S. 63/550,951, i.e. the extracellular domain (ECD) of human DLL3 protein (Q9NYJ7, Gene ID: 10683, residues 27 to 466; purchased from Evitria) linked via an Avi-tag (for site-directed biotinylation), followed by a 3C protease recognition site, to a Fc knob into hole (hDLL3 ECD-Avi-Fckih).
As to B1, binding was put at a Kd of 3.03 nM, the koff is 3.79e-05 s⁻¹ and the kon is 12500 M⁻¹ s⁻¹.

As for B4, the equilibrium dissociation constant (Kd) stood at 1.99 nM, the off-rate (koff) amounted to 2.01e-05 s⁻¹ and the on-rate constant (kon) is 10100 M⁻¹ s⁻¹.

In the case of B2, the equilibrium dissociation constant (Kd) stood at 0.616 nM, the off-rate (koff) stood at 1.44e-05 s⁻¹ and the kon was 23300 M⁻¹ s⁻¹.

The molecule B3 yielded a Kd of 0.953 nM, a koff of 1.79e-05 s⁻¹ and a kon of 18800 M⁻¹ s⁻¹.
